Patent US20230280350A1 (NORDIC BIOSCIENCE A S, published 2023)
No end group written: not given here. *: point of attachment. Biotin = O=C1N[C@H]2[C@H](CS[C@H]2CCCCC(=O)*)N1

How the values were obtained:
[1] = molecular target: T1, Elongated peptide PMKTMKGPFGG; assay: competitive ELISA, peptide against coated Biotin-K-PMKTMKGPFG
T1 construct: Selection peptide with one extra glycine at the C-terminus
T1 peptide: PMKTMKGPFGG
Description: (§1) The PRO-C16 amino acid sequence 1595′-[…] (SEQ ID NO: 1) located at the C-terminal was used to generate an antibody specific for the C-terminal of col-16. It was additionally used to design the selection peptide ([…]; SEQ ID NO: 1) (Table 1). The sequence was BLASTed for homology to other human proteins and species using the NPS@: network protein sequence analysis with the Uniprot/Swiss-Prot database (20). The amino acid sequence is unique to human col-16. A biotinylated peptide (Biotin-K-[…]) was used to coat the streptavidin-coated plates applied in the ELISA. An elongated peptide ([…]; SEQ ID NO: 2), a truncated peptide ([…]; SEQ ID NO: 3), a nonsense peptide ([…]; SEQ ID NO: 5) and a nonsense biotinylated peptide (Biotin-[…]; SEQ ID NO: 6) were included to test the specificity of the antibody.
(§2) The PRO-C16 competitive ELISA procedure was as follows; a 96-well streptavidin-coated microtiter plate was coated with 100 µl of biotinylated peptide (Biotin-K-[…]; SEQ ID NO: 4) dissolved in assay buffer (50 mM PBS-BTB, 4 g/l NaCl, pH 7.4) (final concentration of […]). The plate was incubated for 30 minutes at 20° C. with shaking (300 rpm) and then washed five times in washing buffer (20 mM TRIS, 50 mM NaCl, pH 7.2). A volume of 20 µl of sample/control/selection peptide ([…]; SEQ ID NO: 1) was added followed by immediately addition of 100 µl of monoclonal antibody diluted in assay buffer (final concentration of 62.5 ng/ml). The plate was incubated for 1 hour at 20° C. with shaking followed by five washes in washing buffer. Then, 100 µl of goat anti-mouse HRP-conjugated IgG antibody (Thermo Scientific, Waltham, MA, USA; cat. #31437) diluted in assay buffer (final concentration of 130 ng/ml) was added to each well. […] To stop the reaction of TMB, 100 µl of 1% H₂SO₄ was added and the plate was analyzed in a VersaMax ELISA microplate reader at 450 nm with 650 nm as reference. A standard curve was plotted using a 4-parametric mathematical fit model and data were analyzed using the Softmax Pro v. […]

[2] = molecular target: T2, Truncated peptide PMKTMKGPF; assay: competitive ELISA, peptide against coated Biotin-K-…
T2 construct: Selection peptide without its C-terminal glycine
T2 peptide: PMKTMKGPF
Description: as §1, §2

[3] = molecular target: T3, Nonsense peptide VPKDLPPDTT (not fully specified); assay: as above
T3 construct: Control peptide
T3 peptide: VPKDLPPDTT
Description: as §1, §2

[4] = molecular target: T4, Nonsense biotinylated peptide Biotin-VPKDLPPDTT; assay: ELISA with the nonsense biotinylated peptide on streptavidin plates
T4 construct: Control coating peptide
T4 peptide: Biotin-VPKDLPPDTT

Measured: binding result

B1: monoclonal antibody of the PRO-C16 assay, raised against KLH-CGG-… (antibody, mouse IgG2b, kappa, V domains shown)
VH: EVQLQQSGAELVRSGASVKLSCTASGFNIKDYYIHWVKQRPEQGLEWIGWIDHDNGDTEYDPKFQGKATLTADTSSNTAYLQLSSLTSEDTAVYYCNAKGPRYGYEEDWFAYWGQGTLVTVST
VL: DVLMTQTPLSLPVSLGDQASISCRSSQSIVHNNGNTYLEWFLQKPGQSPKLLIYKVSNRFSGVPDRFSGSGSGTDFTLRISRVEADDLGVYYCFQGSHVPRTFGGGTKLEIKR
notes: also called PRO-C16 antibody; C16-C
no binding: [1] | [2] | [3] | [4]
